“Also recorded” adds a separate entry of the source.
B1: NGF: neurotrophin, ligand of TrkA; obtained from Harlan (protein, UniProt P01139 122-241, looked up)
Beta-nerve growth factor: SSTHPVFHMGEFSVCDSVSVWVGDKTTATDIKGKEVTVLAEVNINNSVFRQYFFETKCRASNPVESGCRGIDSKHWNSYCTTTHTFVKALTTDEKQAAWRFIRIDTACVCVLSRKATRRG

Key:
Type in all cases: cell-based
[1] = system: tyrosine phosphorylation of ARMS by TrkA in PC12 615 cells; test: Tyrosine phosphorylation of ARMS in PC12 615 cells (IP with 892 antiserum, pY99 immunoblot); conditions: for Block of NGF-induced tyrosine phosphorylation of ARMS: 100 nM pretreatment; for Induction of tyrosine phosphorylation of ARMS: 100 ng/ml NGF, 50 ng/ml EGF, 10 minutes and 2 hours
Description: Human embryonic kidney (HEK) 293 and 293T cells were maintained in Dulbecco's Modified Eagle's Medium (DMEM) containing 10% fetal bovine serum (FBS) supplemented with 100 U/ml penicillin, 100 μg/ml streptomycin, and 2 mM glutamine. Native PC12 cells, TrkA-overexpressing PC12 cells (615) (Hempstead et al., 1992), and TrkB-overexpressing PC12 cells were maintained in DMEM containing 10% FBS and 5% heat-inactivated horse serum with 30 U/ml penicillin, 30 μg/ml streptomycin, 2 mM glutamine, and 200 μg/ml G418.
For transient transfection experiments, HEK293 or HEK293T cells plated at 70-80% confluency in 10 cm dishes were subjected to calcium phosphate transfection with different combinations of the mammalian expression plasmids containing cDNAs for ARMS, rat TrkA, and rat HA-tagged p75 (Khursigara et al., 1999). PC12 615 cells or transiently transfected cells were harvested and lysed in 1 ml TNE buffer (10 mM Tris (pH 8.0), 150 mM NaCl, 1 mM EDTA, and 1% NP40) containing 0.12 mg/ml phenylmethylsulfonyl fluoride (PMSF), 2 μg/ml leupeptin, 1 μg/ml aprotinin, 10 mM sodium fluoride (NaF), and 1 mM sodium orthovanadate (Na3VO4) for 30 min on ice. Following centrifugation and removal of the insoluble fraction, protein concentration of the supernatant was determined by the Bio-Rad Protein Assay reagent (Bio-Rad Laboratories, Hercules, Calif.) with bovine serum albumin as the standard. Cell lysates of equivalent protein content were incubated for 4 hours to overnight with rotation at 4° C. with either anti-pan-Trk polyclonal antibody, C14 (1.5 μg) or anti-ARMS (892) antiserum (1:100). The immune complexes were immobilized on protein A-Sepharose beads (Sigma), washed six times with ice-cold TNE buffer, boiled in SDS-sample buffer, separated by sodium dodecyl sulfate-polyacrylamide gel electrophoresis (SDS-PAGE), and transferred onto PVDF membrane (Millipore, Bedford, Mass.). Immunoblotting was carried out by first blocking membranes in TBST buffer (20 mM Tris (pH 7.5), 500 mM NaCl, 0.1% Tween-20) containing 5% BSA for pY99 and 5% nonfat milk for others, and then incubating for 2 hours at room temperature or overnight at 4° C. in TBST buffer containing one of the following primary antibodies: anti-Trk 44 serum (1:2000); anti-phosphotyrosine pY99 antibody (0.1 μg/ml) (Santa Cruz Biotechnology, Santa Cruz, Calif.); anti-ARMS (892) antiserum (1:1000). Membranes were washed with TBST buffer and then incubated with horseradish peroxidase (HRP)-conjugated goat anti-rabbit (Roche Molecular Biochemicals, Indianapolis, Ind.) or goat anti-mouse secondary antibodies (Jackson ImmunoResearch Laboratories, West Grove, Pa.) at 1:10,000 and 1:7500 dilutions, respectively. Immunoreactive protein bands were detected by enhanced chemiluminescence using ECL reagents (Amersham Pharmacia Biotech, Piscataway, N.J.).
The high degree of correspondence in the expression of ARMS and neurotrophin receptors and the endogenous association with TrkA receptors led the present inventors to postulate that ARMS might function as a target for Trk receptor phosphorylation. To investigate this possibility, cell lysates from NGF-treated PC12 cells were prepared and the ARMS protein was immunoprecipitated with anti-ARMS antiserum, 892. Phosphorylation of ARMS protein was visualized by immunoblotting with an anti-phosphotyrosine antibody, pY99. Tyrosine phosphorylation of ARMS was detectable within a minute of NGF addition (FIG. 10A, top), closely following the time course of TrkA autophosphorylation (FIG. 10A, bottom). With continued NGF treatment, the phosphorylation of ARMS persisted for 25 hours (FIG. 10B).

[2] = system: distribution of ARMS in hippocampal neurons and PC12 cells; test: Immunofluorescence analysis of ARMS distribution; conditions: confocal immunofluorescence with antibody 892
Description: FIGS. 16A and 16B show a PC12 Immunofluorescence analysis. PC12 cells with (FIG. 16A) or without (FIG. 16B) NGF treatment cultured in Lab-Tek chamber slides (Nalge Nunc International) coated with collagen and poly-L-lysine were fixed with paraformaldehyde and permeablized with cold methanol. Cells were blocked with PBS containing 10% FCS and incubated with purified antibody (3 μg/ml) against the C-terminus of ARMS protein, 892 (Example 1). Primary antibodies were visualized using fluorescence-conjugated secondary antibodies (FITC-conjugated goat anti-rabbit IgG; Jackson Laboratories).
FIGS. 17A-17F show immunolocalization of ARMS and VAMP-2, a synaptic vesicle marker, in hippocampal neurons. Primary cultures of hippocampal neurons were obtained from rats E17-19 and maintained with Neurobasal medium (Gibco) supplemented with B-27 and 0.4 mM glutamine in Lab-Tek chamber slides (Nalge Nunc International) coated with poly-L-lysine. […] Primary antibodies were detected using fluorescence-conjugated secondary antibodies (FITC-conjugated goat anti-rabbit IgG and rhodamine-conjugated goat anti-mouse IgG (Jackson Laboratories)). […]

[3] = biological target: T1, association between ARMS and the TrkA receptor; test: Coprecipitation of TrkA and ARMS in PC12 615 cells; conditions: NGF 100 ng/ml
T1 construct: expressed in transfected cells; host or cells: PC12 615 cells (TrkA-overexpressing PC12); ARMS is endogenous to these cells
Description: (§1) FIGS. 9A-9D show coprecipitation of TrkA and ARMS (FIG. 9A) and colocalization of TrkA and ARMS (FIGS. 9B-9D). In FIG. 9A, PC12 615 cells were treated for 10 minutes and 25 hours with NGF (100 ng/ml). Lysates were prepared and subjected to immunoprecipitation with anti-Trk C-14 antibody, followed by immunoblot with anti-ARMS antibody. Normal rabbit IgG was used as a negative control. In FIGS. 9B-9D, immunofluorescence analysis of ARMS and TrkA receptor in sympathetic neurons is shown. SCG sympathetic neurons were grown in the presence of 150 ng/ml NGF, fixed and immunostained as described in the Methods section of Example 1. The ARMS protein and the TrkA receptor were subjected to double immunostaining using an anti-ARMS antiserum (FIG. 9B) and an anti-Trk B-3 (FIG. 9C) monoclonal antibody and analyzed by confocal microscopy. […]
(§2) For transient transfection experiments, HEK293 or HEK293T cells plated at 70-80% confluency in 10 cm dishes were subjected to calcium phosphate transfection with different combinations of the mammalian expression plasmids containing cDNAs for ARMS, rat TrkA, and rat HA-tagged p75 (Khursigara et al., 1999). […] Following centrifugation and removal of the insoluble fraction, protein concentration of the supernatant was determined by the Bio-Rad Protein Assay reagent (Bio-Rad Laboratories, Hercules, Calif.) with bovine serum albumin as the standard. […]

[4] = biological target: T2, association between ARMS and the TrkA receptor (Homo sapiens, UniProt P04629); test: Coprecipitation of TrkA and ARMS in PC12 615 cells; conditions: NGF 100 ng/ml, IP anti-Trk C-14, blot anti-ARMS
T2 construct: expressed in transfected cells; host or cells: PC12 615 cells (TrkA-overexpressing PC12); ARMS is endogenous to these cells
Description: as §1, §2

T2 sequence (P04629 33-796): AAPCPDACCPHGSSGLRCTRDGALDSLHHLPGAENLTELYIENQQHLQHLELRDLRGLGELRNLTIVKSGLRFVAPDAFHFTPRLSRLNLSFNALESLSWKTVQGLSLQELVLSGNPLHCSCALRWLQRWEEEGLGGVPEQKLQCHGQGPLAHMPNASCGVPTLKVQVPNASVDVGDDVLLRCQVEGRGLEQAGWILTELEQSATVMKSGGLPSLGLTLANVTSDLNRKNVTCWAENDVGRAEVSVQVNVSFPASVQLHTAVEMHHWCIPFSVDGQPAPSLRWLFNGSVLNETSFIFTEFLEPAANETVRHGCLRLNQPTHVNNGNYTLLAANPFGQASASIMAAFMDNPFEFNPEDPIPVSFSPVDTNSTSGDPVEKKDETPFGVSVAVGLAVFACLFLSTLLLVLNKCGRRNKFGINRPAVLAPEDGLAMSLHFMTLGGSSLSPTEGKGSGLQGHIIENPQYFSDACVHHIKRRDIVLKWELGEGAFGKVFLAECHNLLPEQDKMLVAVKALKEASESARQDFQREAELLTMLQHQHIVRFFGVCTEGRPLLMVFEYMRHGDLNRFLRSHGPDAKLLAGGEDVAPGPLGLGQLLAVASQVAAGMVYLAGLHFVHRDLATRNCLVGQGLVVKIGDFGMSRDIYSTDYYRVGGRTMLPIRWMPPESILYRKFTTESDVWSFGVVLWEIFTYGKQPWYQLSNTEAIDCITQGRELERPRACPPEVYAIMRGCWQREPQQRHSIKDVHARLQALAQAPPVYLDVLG
T2 sequence (Q9EQG6 whole entry partner): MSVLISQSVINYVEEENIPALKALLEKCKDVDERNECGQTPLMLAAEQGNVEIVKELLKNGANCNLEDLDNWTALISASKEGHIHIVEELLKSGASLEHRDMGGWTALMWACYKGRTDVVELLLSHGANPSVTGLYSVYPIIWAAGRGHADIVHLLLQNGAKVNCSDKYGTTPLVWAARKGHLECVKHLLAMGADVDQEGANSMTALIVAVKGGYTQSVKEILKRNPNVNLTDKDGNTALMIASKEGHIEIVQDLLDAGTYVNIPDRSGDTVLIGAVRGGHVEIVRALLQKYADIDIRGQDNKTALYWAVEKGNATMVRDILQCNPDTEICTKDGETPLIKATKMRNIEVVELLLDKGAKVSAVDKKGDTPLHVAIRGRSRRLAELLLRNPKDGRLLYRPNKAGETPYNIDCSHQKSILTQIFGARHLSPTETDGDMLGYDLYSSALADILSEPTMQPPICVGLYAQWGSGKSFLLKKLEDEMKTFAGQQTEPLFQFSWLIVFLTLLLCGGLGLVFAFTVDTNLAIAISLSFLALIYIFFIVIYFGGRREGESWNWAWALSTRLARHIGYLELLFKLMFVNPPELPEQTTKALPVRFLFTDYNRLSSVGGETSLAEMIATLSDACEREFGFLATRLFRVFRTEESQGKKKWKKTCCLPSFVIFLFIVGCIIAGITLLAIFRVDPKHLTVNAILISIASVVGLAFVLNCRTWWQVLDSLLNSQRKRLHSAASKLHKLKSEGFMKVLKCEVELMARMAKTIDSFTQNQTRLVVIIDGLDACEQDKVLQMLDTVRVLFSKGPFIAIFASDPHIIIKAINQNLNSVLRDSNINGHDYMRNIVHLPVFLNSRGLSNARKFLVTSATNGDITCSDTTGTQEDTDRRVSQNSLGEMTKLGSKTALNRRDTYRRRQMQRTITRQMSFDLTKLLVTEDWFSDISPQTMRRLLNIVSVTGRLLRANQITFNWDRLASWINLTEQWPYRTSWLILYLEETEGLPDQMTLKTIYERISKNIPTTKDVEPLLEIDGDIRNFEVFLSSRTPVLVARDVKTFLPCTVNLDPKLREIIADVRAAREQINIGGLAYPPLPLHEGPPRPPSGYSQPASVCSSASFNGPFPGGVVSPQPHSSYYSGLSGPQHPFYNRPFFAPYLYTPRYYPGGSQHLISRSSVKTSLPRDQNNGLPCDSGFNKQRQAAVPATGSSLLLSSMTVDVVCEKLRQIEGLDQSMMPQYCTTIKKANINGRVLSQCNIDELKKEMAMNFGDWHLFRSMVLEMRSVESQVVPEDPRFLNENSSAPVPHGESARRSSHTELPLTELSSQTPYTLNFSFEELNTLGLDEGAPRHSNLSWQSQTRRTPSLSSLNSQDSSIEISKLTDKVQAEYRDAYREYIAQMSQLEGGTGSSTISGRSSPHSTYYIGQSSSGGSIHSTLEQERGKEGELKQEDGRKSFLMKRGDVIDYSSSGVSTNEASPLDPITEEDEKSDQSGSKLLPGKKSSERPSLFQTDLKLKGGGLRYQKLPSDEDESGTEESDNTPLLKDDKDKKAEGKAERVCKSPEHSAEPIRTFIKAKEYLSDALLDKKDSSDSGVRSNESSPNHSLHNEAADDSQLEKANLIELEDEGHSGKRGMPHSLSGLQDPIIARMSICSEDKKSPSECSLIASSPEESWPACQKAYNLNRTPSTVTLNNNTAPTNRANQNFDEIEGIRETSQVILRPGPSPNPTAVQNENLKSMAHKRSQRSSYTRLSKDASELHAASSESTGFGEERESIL
T1 sequence (P04629 33-796): as the sequence (P04629 33-796) above
T1 sequence (Q9EQG6 whole entry partner): as the sequence (Q9EQG6 whole entry partner) above

Molecule | Block of NGF-induced tyrosine phosphorylation of ARMS ([1]; PC12 615 cells, NGF treatment) | Block of NGF-induced tyrosine phosphorylation of ARMS ([1]; PC12 615 cells, NGF treatment, listed as K-252a) | Induction of tyrosine phosphorylation of ARMS ([1]; PC12 615 cells) | Change in distribution of ARMS [2] | Time to detectable ARMS phosphorylation ([1]; PC12 615 cells, NGF treatment) | Time of peak ARMS phosphorylation ([1]; PC12 cells, NGF treatment) | Association between ARMS and TrkA receptor [3] | Persistence of ARMS-TrkA association after treatment [4]
COC(=O)[C@@]1(O)C[C@H]2O[C@]1(C)n1c3ccccc3c3c4c(c5c6ccccc6n2c5c31)C(=O)NC4 [K252a, reference compound] | potently blocked | completely abolished |  |  |  |  |  | 
insulin |  |  | not elicited |  |  |  |  | 
B1 |  |  | considerably more robust; also recorded: specifically induced | dramatic change in distribution; also recorded: localized at neurite tips | ≤ 1 min | ≤ 10 min | NGF-dependent association | 25 h

From US20030166056A1, “Transmembrane protein as a downstream target of neurotrophin and ephrin receptor tyrosine kinases, DNA encoding same and monoclonal antibodies thereto” (New York University, priority 2000, published 2003)
